Assay results: US20110183329A1, “PROTEIN PHOSPHATASE-1 INHIBITOR-1 POLYMORPHISM AND METHODS OF USE” (priority 2008, published 2011)

B1: WT inhibitor-1: wild-type human protein phosphatase-1 inhibitor-1 (SEQ ID NO:13) overexpressed by recombinant adenovirus (protein, listed as Homo sapiens)
chain: MEQDNSPRKIQFTVPLLEPHLDPEAAEQIRRRRPTPATLVLTSDQSSPEIDEDRIPNPHLKSTLAMSPRQRKKMTRITPTMKELQMMVEHHLGQQQQGEEPEGAAESTGTQESRPPGIPDTEVESRLGTSGTAKKTAECIPKTHERGSKEPSTKEPSTHIPPLDSKGANSV
B2: D147 inhibitor-1: human inhibitor-1 with aspartic acid for glycine at position 147 (SEQ ID NO:14), overexpressed by recombinant adenovirus (protein, listed as Homo sapiens)
chain: MEQDNSPRKIQFTVPLLEPHLDPEAAEQIRRRRPTPATLVLTSDQSSPEIDEDRIPNPHLKSTLAMSPRQRKKMTRITPTMKELQMMVEHHLGQQQQGEEPEGAAESTGTQESRPPGIPDTEVESRLGTSGTAKKTAECIPKTHERDSKEPSTKEPSTHIPPLDSKGANSV

Key:
troponin I = assay: Western blotting of troponin I phosphorylation in infected cardiomyocytes; format: cell-based; details: adult rat cardiomyocytes
Protocol: (§1) Recombinant adenovirus carrying empty vector, wild-type (WT) G147 inhibitor-1, or D147 inhibitor-1 was generated by using the Adeno-X expression system kit (Clontech, Mountain View, Calif.). All of the adenoviruses also expressed GFP as an indicator of transfection efficiency. Two hours after isolation and culture, myocytes seeded on coverslips or dishes were infected with adenovirus in diluted media, at a multiplicity of infection of 500, for 2 h before the addition of a suitable volume of culture media. Twenty-four hours later, the myocytes were washed in KHB including 1 mM Ca and harvested for quantitative immunoblotting or use in the experiments outlined below.
(§2) Alterations in the phosphorylation and/or total level of proteins were analyzed from whole heart homogenates, with the exception of MyBP-C, which was analyzed from a myofibril protein preparation, using Western blotting. 2-70 μg of protein were separated on polyacrylamide gels (6-15%) and transferred to nitrocellulose membranes. The membranes were incubated with primary antibodies, which were visualized by peroxidase-conjugated secondary antibodies (Amersham Biosciences) and enhanced chemiluminescence (Supersignal West Pico Chemiluminescent, Pierce). The bands were then quantified with densitometry, using ImageQuant 5.2 (GE Healthcare, Little Chalfont, UK). […]

adult rat cardiomyocytes = assay: Contractile parameter measurements in adenovirus-infected myocytes; format: cell-based; details: for contractility response to isoproterenol (fractional shortening, contraction, relaxation): adenovirus-infected cardiomyocytes; for cellular contractility (fractional shortening, contracting velocity, relaxing velocity): basal conditions, overexpression by adenovirus, 24 h
Protocol: Adult rat ventricular myocytes were isolated and cultured. Hearts from adult male Sprague-Dawley rats (8 wk old) were perfused with modified Krebs-Henseleit buffer (KHB) (118 mM NaCl, 4.8 mM KCl, 25 mM HEPES, 1.25 mM K2HPO4, 1.25 mM MgSO4, 11 mM glucose, 5 mM taurine, and 10 mM butanedione monoxime; pH 7.4) for 5 min. Subsequently, hearts were perfused with an enzyme solution [KHB containing 0.7 mg/ml collagenase type II (263 U/mg), 0.2 mg/ml hyaluronidase, 0.1% BSA, and 25 μM Ca]. Ten and 15 min later, 25 and 50 μM Ca, respectively, were added to the perfusion buffer, so that the Ca concentration was raised to 100 μM, and perfusion was continued for another 5 min. Finally, left ventricular tissue was excised, minced, pipette dissociated, and filtered through a […] screen. Cells were harvested and resuspended in KM including 1 mM Ca and 1% BSA. After a brief centrifugation, the cells were resuspended in KHB including 1.8 mM Ca and 1% BSA, centrifuged briefly again, and resuspended in Dulbecco's modified Eagle's medium containing 2 mg/ml BSA, 2 mM L-camitine, 5 mM creatine, 5 mM taurine, 1.8 mM Ca, 100 IU/ml penicillin, and 100 μg/ml streptomycin. Cells were then counted and plated on laminin-coated glass coverslips or dishes.
as §1
Myocytes that adhered to the coverslips were bathed in temperature (37° C.)—equilibrated KHB containing 1 mM Ca for 20 min. The myocyte suspension was then placed in a Plexiglas chamber, which was positioned on the stage of an inverted epifluorescence microscope (Diaphot 200; Nikon, Tokyo, Japan). Myocyte contraction was field-stimulated by a Grass S5 stimulator (0.5 Hz, square. waves; Grass Technologies, An Astro-Med, Inc., West Warwick, R.I., USA), and contractions were videotaped and digitized on a computer. A video edge motion detector (Crescent Electronics, Windsor, ON, Canada) was used to measure myocyte length and cell shortening, from which the percent fractional shortening (% FS) and maximal rates of contraction and relaxation (±dL/dt) were calculated. To investigate the response of adult rat cardiomyocytes to isoproterenol, a maximal concentration of isoproterenol (100 nM) was added to the KHB (including 1 mM Ca) in the Plexiglas chamber, and the above-mentioned measurements were repeated. All data were analyzed using software from Felix 1.1 software (Photon Technology International, Birmingham, N.J., USA) and IonWizard (IonOptix Corp., Milton, Mass., USA).

RyR = assay: Western blotting of RyR phosphorylation in infected cardiomyocytes; format: cell-based; details: adult rat cardiomyocytes
Protocol: as §1, §2

PLN = assay: Western blotting of PLN phosphorylation in infected cardiomyocytes; format: cell-based, rat
[1] = test system: major regulatory proteins related to cardiac calcium homeostasis; assay: Quantitative immunoblotting of calcium homeostasis regulatory proteins after adenoviral gene transfer; format: cell-based, rat; details: 24 h post-transfection
Excerpt: FIG. 2. Isolated adult rat cardiomyocytes were infected with adenoviruses expressing GFP as control (empty), G147 inhibitor-1 or D147 inhibitor-1. (A) Images of infected cardiomyocytes and GFP expression. (B) Representative western blots display expression levels of inhibitor-1, SERCA 2a, PLN, CSQ, and L-type Ca-channel (LTCC).
as §1

Row | Molecule | effect of isoproterenol treatment on troponin I phosphorylation (troponin I) | effect of isoproterenol on contractility of control-virus cardiomyocytes (adult rat cardiomyocytes; 100 nM isoproterenol, control virus) | effect of isoproterenol treatment on RyR phosphorylation (RyR) | effect of isoproterenol on phosphorylation of PLN in control cells (PLN; control cells) | contractility response to isoproterenol (fractional shortening, contraction, relaxation) (adult rat cardiomyocytes; 100 nM isoproterenol) | cellular contractility (fractional shortening, contracting velocity, relaxing velocity) (adult rat cardiomyocytes) | levels of the major regulatory proteins related to cardiac calcium homeostasis [1] | level of phosphorylated PLN on serine 16 depressed (PLN; in the presence of isoproterenol) [%] | phosphorylation of PLN (PLN; in the presence of isoproterenol, versus control cells) | contractility response at lower isoproterenol dose (adult rat cardiomyocytes; 10 nM isoproterenol) | contractile parameters depressed compared with WT inhibitor-1-stimulated cells (adult rat cardiomyocytes; 100 nM isoproterenol)
1 | CC(C)NCC(O)c1ccc(O)c(O)c1 (centres unmarked) [isoproterenol, reference compound] | increased | enhanced contractility | increased | increased | – | – | – | – | – | – | –
2 | B1 | – | – | – | – | enhanced contractility | did not alter | did not alter | ~50 | similarly increased | – | –
3 | B2 | – | – | – | – | significantly blunted | did not alter | did not alter | – | – | differences similar to those observed in 100 nM | 24-28%
